The values below come from patent US20040022767A1 (Genentech, published 2004).

Test [1] has as its target T1, soluble rat elk/Fc fusion protein (rat; human, UniProt P09759 18-540; P01857 99-330 = IgG part, limits assumed).
T1 construct: extracellular domain;domain: Fc region (hinge to native C-terminus)
As to the kind of experiment: indirect Scatchard analysis, biphasic, first component; elk/Fc titrated on transfected CV-1/EBNA-1 cells, detected with 125I-mouse anti-human IgG.

In test [2] the target is T1, soluble rat elk/Fc fusion protein. As to the kind of experiment: indirect Scatchard analysis, biphasic, second component; elk/Fc titrated on transfected CV-1/EBNA-1 cells, detected with 125I-mouse anti-human IgG.
For test [3], the target named is T2, soluble hek/Fc fusion protein (human, UniProt P29320 21-541; P01857 99-330 = IgG part, limits assumed).
T2 construct: extracellular domain;domain: Fc region (hinge to native C-terminus); The extracellular domain and the dimeric state are inferred from that analogy
T2 sequence (P29320 other isoform, or with tags, fused parts or gaps limits assumed): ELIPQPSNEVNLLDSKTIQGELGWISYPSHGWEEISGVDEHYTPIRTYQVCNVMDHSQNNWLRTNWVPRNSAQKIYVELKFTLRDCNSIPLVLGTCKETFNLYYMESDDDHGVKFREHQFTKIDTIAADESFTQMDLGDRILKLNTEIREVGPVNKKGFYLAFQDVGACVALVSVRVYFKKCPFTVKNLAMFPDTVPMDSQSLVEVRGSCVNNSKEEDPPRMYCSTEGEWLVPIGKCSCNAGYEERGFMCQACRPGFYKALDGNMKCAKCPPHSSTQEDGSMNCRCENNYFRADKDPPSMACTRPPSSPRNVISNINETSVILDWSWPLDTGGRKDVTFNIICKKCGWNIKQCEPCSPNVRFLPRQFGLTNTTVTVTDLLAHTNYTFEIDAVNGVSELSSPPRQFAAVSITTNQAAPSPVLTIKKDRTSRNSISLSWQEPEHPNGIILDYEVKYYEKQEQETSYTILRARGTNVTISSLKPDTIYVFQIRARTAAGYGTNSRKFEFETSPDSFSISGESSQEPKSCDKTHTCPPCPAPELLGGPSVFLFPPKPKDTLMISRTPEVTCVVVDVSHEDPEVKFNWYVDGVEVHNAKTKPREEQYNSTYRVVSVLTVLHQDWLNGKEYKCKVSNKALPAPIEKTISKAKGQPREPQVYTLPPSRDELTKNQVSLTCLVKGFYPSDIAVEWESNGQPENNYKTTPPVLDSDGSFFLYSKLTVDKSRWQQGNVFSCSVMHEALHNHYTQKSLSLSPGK
Description: indirect Scatchard analysis; hek/Fc titrated on transfected CV-1/EBNA-1 cells, detected with 125I-mouse anti-human IgG.

Test [4] deals with T2, soluble hek/Fc fusion protein. Description: indirect Scatchard analysis, biphasic, second component; hek/Fc titrated on transfected CV-1/EBNA-1 cells, detected with 125I-mouse anti-human IgG.
Test [5] shares this target. As to the kind of experiment: indirect Scatchard analysis, biphasic, first component; hek/Fc titrated on transfected CV-1/EBNA-1 cells, detected with 125I-mouse anti-human IgG.
The target in test [6] is T1, soluble rat elk/Fc fusion protein. Description: indirect Scatchard analysis; elk/Fc titrated on transfected CV-1/EBNA-1 cells, detected with 125I-mouse anti-human IgG. From the text:
CV1-EBNA-1 cells (described in Example 3) in 12-well plates (2.5×10⁵ cells/well) were transfected with an expression vector containing the clone E7 elk-L cDNA. The mammalian expression vector, designated pDC410, is similar to pDC406 (McMahan et al., EMBO J. 10:2821, 1991). In pDC410, the EBV origin of replication of pDC406 is replaced by DNA encoding the SV40 large T antigen (driven from an SV40 promoter). The pDC410 multiple cloning site (mcs) differs from that of pDC406 in that it contains additional restriction sites and three stop codons (one in each reading frome). A T7 polymerase promoter downstream of the mcs facilitates sequencing of DNA inserted into the mcs. The transfected cells were cultured for two days to permit expression of the elk-L protein, then washed with BM-NFDMv (the binding medium described in Example 2, also containing 50 mg/ml nonfat dry milk), and incubated with various concentrations of the elk/Fc fusion protein prepared in Example 1, for 1 hour at 37° C. Subsequently, cells were washed and incubated with a constant saturating concentration of the ¹²⁵I-labeled mouse anti-human IgG antibody prepared in Example 2 (40 ng/ml) in binding medium with gentle agitation for 1 hour at 37° C. Cells then were harvested by trypsinization. […]

T1 sequence (P09759 other isoform, or with tags, fused parts or gaps limits assumed): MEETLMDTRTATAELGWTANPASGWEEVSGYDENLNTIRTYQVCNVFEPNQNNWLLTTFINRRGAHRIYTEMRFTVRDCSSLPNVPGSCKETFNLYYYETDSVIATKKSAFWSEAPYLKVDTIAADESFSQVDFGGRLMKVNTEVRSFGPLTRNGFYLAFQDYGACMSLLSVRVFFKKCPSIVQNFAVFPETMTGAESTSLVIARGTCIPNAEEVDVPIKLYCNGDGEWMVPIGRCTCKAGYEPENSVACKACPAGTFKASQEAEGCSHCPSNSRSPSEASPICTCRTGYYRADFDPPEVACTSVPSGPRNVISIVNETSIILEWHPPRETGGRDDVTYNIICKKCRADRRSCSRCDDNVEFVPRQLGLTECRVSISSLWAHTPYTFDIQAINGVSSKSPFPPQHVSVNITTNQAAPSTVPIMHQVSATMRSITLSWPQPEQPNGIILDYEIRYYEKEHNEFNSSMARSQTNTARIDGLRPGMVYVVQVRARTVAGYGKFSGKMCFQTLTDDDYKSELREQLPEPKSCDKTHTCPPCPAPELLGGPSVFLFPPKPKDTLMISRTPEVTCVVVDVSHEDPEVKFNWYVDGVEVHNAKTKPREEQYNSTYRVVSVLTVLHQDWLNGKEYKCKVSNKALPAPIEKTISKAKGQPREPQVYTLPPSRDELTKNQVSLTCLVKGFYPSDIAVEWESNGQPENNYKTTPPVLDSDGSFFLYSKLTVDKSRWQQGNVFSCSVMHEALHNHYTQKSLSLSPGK

B1: hek-L protein designated C6, expressed on transfected CV-1/EBNA-1 cells (ligand, UniProt P52798 26-170, looked up)
chain: LRHVVYWNSSNPRLLRGDAVVELGLNDYLDIVCPHYEGPGPPEGPETFALYMVDWPGYESCQAEGPRAYKRWVCSLPFGHVQFSEKIQRFTPFSLGFEFLPGETYYYISVPTPESSGQCLRLQVSVCCKERKSESAHPVGSPGES
notes: whole, on cells; also called hek-L C6; hek ligand C6
Regarding B1, the Ka was 1.3e+08 M⁻¹ in test [1], 5.4e+07 M⁻¹ in test [2] and 2e+08 M⁻¹ in test [3].

B2: B61 protein expressed on transfected CV-1/EBNA-1 cells (ligand, human, UniProt P20827 19-182, looked up)
chain: DRHTVFWNSSNPKFRNEDYTIHVQLNDYVDIICPHYEDHSVADAAMEQYILYLVEHEEYQLCQPQSKDQVRWQCNRPSAKHGPEKLSEKFQRFTPFTLGKEFKEGHSYYYISKPIHQHEDRCLRLKVTVSGKITHSPQAHDNPQEKRLAADDPEVRVLHSIGHS
notes: whole, on cells
In the case of B2, the Ka in test [1] is 2.3e+08 M⁻¹; in test [2] it was 7e+07 M⁻¹; in test [3], 5.5e+07 M⁻¹.

B3: human elk ligand (elk-L), clone E7, expressed on transfected CV-1/EBNA-1 cells (ligand)
chain: ATPLAKNLEPVSWSSLNPKFLSGKGLVIYPKIGDKLDIICPRAEAGRPYEYYKLYLVRPEQAAACSTVLDPNVLVTCNRPEQEIRFTIKFQEFSPNYMGLEFKKHHDYYITSTSNGSLEGLENREGGVCRTRTMKIIMKVGQDPNAVTPEQLTTSRPSKEADNTVKMATQAPGSRGSLGDSDGKHETVNQEEKSGPGASGGSSGDPDGFFNSKVALFAAVGAGCVIFLLIIIFLTVLLLKLRKRHRKHTQQRAAALSLSTLASPKGGSGTAGTEPSDIIIPLRTTENNYCPHYEKVSGDYGHPVYIVQEMPPQSPANIYYKV
B3: the Ka in test [4] amounted to 2.9e+06 M⁻¹; in test [5], 2.3e+07 M⁻¹; in test [6], 1.08e+09 M⁻¹.

B4: hek-L protein designated A2, expressed on transfected CV-1/EBNA-1 cells (ligand, UniProt P52797 23-214, looked up)
chain: QGPGGALGNRHAVYWNSSNQHLRREGYTVQVNVNDYLDIYCPHYNSSGVGPGAGPGPGGGAEQYVLYMVSRNGYRTCNASQGFKRWECNRPHAPHSPIKFSEKFQRYSAFSLGYEFHAGHEYYYISTPTHNLHWKCLRMKVFVCCASTSHSGEKPVPTLPQFTMGPNVKINVLEDFEGENPQVPKLEKSISG
notes: whole, on cells; also called hek-L A2; hek ligand A2
Take B4: the Ka amounted to 2.7e+08 M⁻¹ in test [1], 3.5e+07 M⁻¹ in test [2] and 2e+08 M⁻¹ in test [3].
